Experimental findings from patent US11458141B2, “Aryl hydrocarbon receptor (AhR) agonists for the prevention and treatment of inflammatory disorders” (The Johns Hopkins University, priority 2017, dated 2022) are described below.

In the experiment the target is T1, AHR (Mus musculus, UniProt P30561).
T1 construct: from tissue; host or cells: mouse intestine (ileum / intestinal mucosa), in vivo
T1 sequence (P30561 10-848): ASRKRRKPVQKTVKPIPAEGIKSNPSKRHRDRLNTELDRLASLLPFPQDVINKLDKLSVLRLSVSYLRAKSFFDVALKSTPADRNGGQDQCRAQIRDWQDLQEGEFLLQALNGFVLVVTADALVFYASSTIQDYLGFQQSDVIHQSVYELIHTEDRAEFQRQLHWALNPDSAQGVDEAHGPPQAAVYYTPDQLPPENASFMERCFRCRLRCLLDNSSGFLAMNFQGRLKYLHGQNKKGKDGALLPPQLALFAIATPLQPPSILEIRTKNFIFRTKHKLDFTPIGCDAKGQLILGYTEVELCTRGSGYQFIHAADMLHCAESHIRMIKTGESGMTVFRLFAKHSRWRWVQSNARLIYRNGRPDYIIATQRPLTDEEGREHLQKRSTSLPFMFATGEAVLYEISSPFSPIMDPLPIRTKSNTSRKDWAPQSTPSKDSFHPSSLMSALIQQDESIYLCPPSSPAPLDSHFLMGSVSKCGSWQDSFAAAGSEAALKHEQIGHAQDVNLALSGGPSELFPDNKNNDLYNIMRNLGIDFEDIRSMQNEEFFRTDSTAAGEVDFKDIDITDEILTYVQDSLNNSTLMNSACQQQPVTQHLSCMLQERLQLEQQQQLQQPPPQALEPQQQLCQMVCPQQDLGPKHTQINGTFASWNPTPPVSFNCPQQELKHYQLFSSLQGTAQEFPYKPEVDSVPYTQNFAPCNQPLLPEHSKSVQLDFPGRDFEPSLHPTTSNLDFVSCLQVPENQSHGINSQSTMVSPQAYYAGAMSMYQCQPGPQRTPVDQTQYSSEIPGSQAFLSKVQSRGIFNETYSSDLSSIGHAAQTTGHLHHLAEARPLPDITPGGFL
In words: AHR activation in mice by breast milk components (preliminary data). Format: in vivo. The text has this: iii. Other effects of breast milk. Although it is shown that breast milk inhibits TLR4 signaling in part via AHR activation (FIG. 15), potential AHR ligands within breast milk have not yet been thoroughly examined.

B1: epidermal growth factor (EGF): molecule enriched within breast milk shown to prevent NEC (protein, UniProt P01133 23-1207, looked up)
Pro-epidermal growth factor: PQHWSCPEGTLAGNGNSTCVGPAPFLIFSHGNSIFRIDTEGTNYEQLVVDAGVSVIMDFHYNEKRIYWVDLERQLLQRVFLNGSRQERVCNIEKNVSGMAINWINEEVIWSNQQEGIITVTDMKGNNSHILLSALKYPANVAVDPVERFIFWSSEVAGSLYRADLDGVGVKALLETSEKITAVSLDVLDKRLFWIQYNREGSNSLICSCDYDGGSVHISKHPTQHNLFAMSLFGDRIFYSTWKMKTIWIANKHTGKDMVRINLHSSFVPLGELKVVHPLAQPKAEDDTWEPEQKLCKLRKGNCSSTVCGQDLQSHLCMCAEGYALSRDRKYCEDVNECAFWNHGCTLGCKNTPGSYYCTCPVGFVLLPDGKRCHQLVSCPRNVSECSHDCVLTSEGPLCFCPEGSVLERDGKTCSGCSSPDNGGCSQLCVPLSPVSWECDCFPGYDLQLDEKSCAASGPQPFLLFANSQDIRHMHFDGTDYGTLLSQQMGMVYALDHDPVENKIYFAHTALKWIERANMDGSQRERLIEEGVDVPEGLAVDWIGRRFYWTDRGKSLIGRSDLNGKRSKIITKENISQPRGIAVHPMAKRLFWTDTGINPRIESSSLQGLGRLVIASSDLIWPSGITIDFLTDKLYWCDAKQSVIEMANLDGSKRRRLTQNDVGHPFAVAVFEDYVWFSDWAMPSVMRVNKRTGKDRVRLQGSMLKPSSLVVVHPLAKPGADPCLYQNGGCEHICKKRLGTAWCSCREGFMKASDGKTCLALDGHQLLAGGEVDLKNQVTPLDILSKTRVSEDNITESQHMLVAEIMVSDQDDCAPVGCSMYARCISEGEDATCQCLKGFAGDGKLCSDIDECEMGVPVCPPASSKCINTEGGYVCRCSEGYQGDGIHCLDIDECQLGEHSCGENASCTNTEGGYTCMCAGRLSEPGLICPDSTPPPHLREDDHHYSVRNSDSECPLSHDGYCLHDGVCMYIEALDKYACNCVVGYIGERCQYRDLKWWELRHAGHGQQQKVIVVAVCVVVLVMLLLLSLWGAHYYRTQKLLSKNPKNPYEESSRDVRSRRPADTEDGMSSCPQPWFVVIKEHQDLKNGGQPVAGEDGQAADGSMQPTSWRQEPQLCGMGTEQGCWIPVSSDKGSCPQVMERSFHMPSYGTQTLEGGVEKPHSLLSANPLWQQRALDPPHQMELTQ
modifications: Pro-epidermal growth factor
For B1, the AHR activation result is recorded as “can activate AHR in mice”.
